Patent US20100160556A1, “GLP-1 Fusion Peptides Conjugated to Polymer(s), Their Production and Use” (priority 2007, published 2010)

Test system: type II diabetic mice (C57BL/Ks-Lepr db/db)
Assay: In vivo bioactivity in type II diabetic mice
Conditions: 5 μg peptide s.c. twice a day, day 2, 4, 7, 10
Method: 11-week-old type II diabetic mice (C57BL/Ks-Lepr^db/db, Harlan) were treated with 5 μg peptide by subcutaneous injection twice a day at 9 a.m. and 5 p.m. (n=5 per group). Blood glucose was measured before (day 0) and after treatment with GLP^CM peptides (Day 2, 4, 7, 10) at 10 a.m. after an overnight fastening period. Data were presented in relation to blood glucose levels measured at day 0.
Best results were obtained with recombinant SEQ ID NO:6 (CM1) and synthetic SEQ ID NO:8 (CM3). In FIG. 9 (y-axis) the relative effect of the treatment is shown. Blood glucose at day ═O was set to 1. Untreated animals undergo continuous increase in blood glucose level over time, whereas animals treated with inventive peptides display grosso modo a continuous decrease of the blood glucose level over time.

B1: GLP-1(7-37)—IP2-RR-GLP2 (peptide)
chain: HAEGTFTSDVSSYLEGQAAKEFIAWLVKGRGRRDFPEEVAIAEELGRRHADGSFSDEMSTILDNLATRDFINWLIQTKITDKK
notes: 83 aa fusion peptide
anti-hyperglycemia effect (blood glucose relative to day 0): anti-hyperglycemia effect
